This is an account of results in PMC6172466 (EMBO Reports, 2018).

Numbering of substitutions follows the chain as printed. Names may count otherwise.

The target of assay [1] is T1, N-terminally TAMRA-labeled monoubiquitin (UniProt P0CG48 1-76, TAMRA on the N-terminus).
T1 construct: ubiquitin with a free C-terminus; also called TAMRA-monoubiquitin; ubiquitin labeled with an N-terminal fluorophore
Nature of the assay: fluorescence polarisation; equilibrium binding of USP4 to TAMRA-labelled ubiquitin species; as described in ref. 32. The settings on record: both partners purified. (In general: Polarisation of emitted light reports the rotation of a fluorescent probe.)

For assay [2], the target named is T2, ubiquitin (untagged) (UniProt P0CG48 1-76).
T2 construct: ubiquitin, untagged (pET3a), free C-terminus at Gly76; also called monoubiquitin; free ubiquitin; source: E. coli Rosetta 2, purified (perchloric acid, HiTrap SP, HiLoad S75)
Nature of the assay: ITC; 30 μM DUBm in the cell, 0.3 mM K48-linked diubiquitin or monoubiquitin injected; 25°C; 20 mM HEPES pH 7, 150 mM NaCl, 5 nM ZnCl2, 0.5 mM TCEP; one-site binding model. The settings on record: both partners purified.

B1: USP4 (8-925) C311A (enzyme, human, UniProt Q13107 8-925, looked up)
chain: RERPDAETQKSELGPLMRTTLQRGAQWYLIDSRWFKQWKKYVGFDSWDMYNVGEHNLFPGPIDNSGLFSDPESQTLKEHLIDELDYVLVPTEAWNKLLNWYGCVEGQQPIVRKVVEHGLFVKHCKVEVYLLELKLCENSDPTNVLSCHFSKADTIATIEKEMRKLFNIPAERETRLWNKYMSNTYEQLSKLDNTVQDAGLYQGQVLVIEPQNEDGTWPRQTLQSKSSTAPSRNFTTSPKSSASPYSSVSASLIANGDSTSTCGMHSSGVSRGGSGFSASYNCQEPPSSHIQPGLCGLGNLGNTAFMNSALQCLSNTAPLTDYFLKDEYEAEINRDNPLGMKGEIAEAYAELIKQMWSGRDAHVAPRMFKTQVGRFAPQFSGYQQQDSQELLAFLLDGLHEDLNRVKKKPYLELKDANGRPDAVVAKEAWENHRLRNDSVIVDTFHGLFKSTLVCPECAKVSVTFDPFCYLTLPLPLKKDRVMEVFLVPADPHCRPTQYRVTVPLMGAVSDLCEALSRLSGIAAENMVVADVYNHRFHKIFQMDEGLNHIMPRDDIFVYEVCSTSVDGSECVTLPVYFRERKSRPSSTSSASALYGQPLLLSVPKHKLTLESLYQAVCDRISRYVKQPLPDEFGSSPLEPGACNGSRNSCEGEDEEEMEHQEEGKEQLSETEGSGEDEPGNDPSETTQKKIKGQPCPKRLFTFSLVNSYGTADINSLAADGKLLKLNSRSTLAMDWDSETRRLYYDEQESEAYEKHVSMLQPQKKKKTTVALRDCIELFTTMETLGEHDPWYCPNCKKHQQATKKFDLWSLPKILVVHLKRFSYNRYWRDKLDTVVEFPIRGLNMSEFVCNLSARPYVYDLIAVSNHYGAMGVGHYTAYAKNKLNGKWYYFDDSNVSLASEDQIVTKAAYVLFYQRRDD
notes: human USP4, residues 8-925, active site cysteine C311 changed to alanine; also called USP4^C311A; USP4 C311A
In assay [1], B1 displayed a Kd of 0.6 ± 0.17 nM.

B2: SAGA DUB module containing wild-type Ubp8 (complex, yeast)
chain 1: MSICPHIQQVFQNEKSKDGVLKTCNAARYILNHSVPKEKFLNTMKCGTCHEINSGATFMCLQCGFCGCWNHSHFLSHSKQIGHIFGINSNNGLLFCFKCEDYIGNIDLINDAILAKYWDDVCTKTMVPSMERRDGLSGLINMGSTCFMSSILQCLIHNPYFIRHSMSQIHSNNCKVRSPDKCFSCALDKIVHELYGALNTKQASSSSTSTNRQTGFIYLLTCAWKINQNLAGYSQQDAHEFWQFIINQIHQSYVLDLPNAKEVSRANNKQCECIVHTVFEGSLESSIVCPGCQNNSKTTIDPFLDLSLDIKDKKKLYECLDSFHKKEQLKDFNYHCGECNSTQDAIKQLGIHKLPSVLVLQLKRFEHLLNGSNRKLDDFIEFPTYLNMKNYCSTKEKDKHSENGKVPDIIYELIGIVSHKGTVNEGHYIAFCKISGGQWFKFNDSMVSSISQEEVLKEQAYLLFYTIRQVN
chain 2: MTEETITIDSISNGILNNLLTTLIQDIVARETTQQQLLKTRYPDLRSYYFDPNGSLDINGLQKQQESSQYIHCENCGRDVSANRLAAHLQRCLSRGARR
chain 3: MTMDTAQLKSQIQQYLVESGNYELISNELKARLLQEGWVDKVKDLTKSEMNINESTNFTQILSTVEPKALEMVSDSTRETVLKQIREFLEEIVDTQ
chain 4: MRSGDAEIKGIKPKVIEEYSLSQGSGPSNDSWKSLMSSAKDTPLQYDHMNRESLKKYFNPNAQLIEDPLDKPIQYRVCEKCGKPLALTAIVDHLEN
notes: Ubp8, catalytic USP subunit of the yeast SAGA DUB module; Sgf11, subunit of the yeast SAGA DUB module (pCDFDuet-1 MCSI); Sus1, subunit of the yeast SAGA DUB module (pRSF-1); Sgf73 residues 1-96, subunit of the yeast SAGA DUB module (pCDFDuet-1 MCSII); Heterotetramer; also called DUBm-Ubp8^WT; wild-type DUBm; copies: + + +
In turn, B2 yielded a Kd in assay [2] of 13.9 µM.

B3: SAGA DUB module containing Ubp8^C146S (complex, yeast)
chain 1: B2 chain 1 with C146S
chain 2: B2 chain 2
chain 3: B2 chain 3
chain 4: B2 chain 4
notes: Ubp8, catalytic USP subunit of the yeast SAGA DUB module, active site cysteine changed; Sgf11, subunit of the yeast SAGA DUB module (pCDFDuet-1 MCSI); Sus1, subunit of the yeast SAGA DUB module (pRSF-1); Sgf73 residues 1-96, subunit of the yeast SAGA DUB module (pCDFDuet-1 MCSII); Heterotetramer; also called DUBm-Ubp8^C146S; copies: + + +
In turn, B3 displayed a Kd in assay [2] of 12.8 µM.

B4: SAGA DUB module containing Ubp8^C146A (complex, yeast)
chain 1: B2 chain 1 with C146A
chain 2: B2 chain 2
chain 3: B2 chain 3
chain 4: B2 chain 4
notes: Ubp8, catalytic USP subunit of the yeast SAGA DUB module, active site cysteine changed; Sgf11, subunit of the yeast SAGA DUB module (pCDFDuet-1 MCSI); Sus1, subunit of the yeast SAGA DUB module (pRSF-1); Sgf73 residues 1-96, subunit of the yeast SAGA DUB module (pCDFDuet-1 MCSII); Heterotetramer; also called DUBm-Ubp8^C146A; DUB module-Ubp8^C146A; copies: + + +
B4: the Kd in assay [2] is 0.43 µM.

The term Kd denotes a measure of binding affinity in units of concentration. Read a low Kd as higher affinity.
